Columns and labels:
[1] = molecular target: T1, SARS-CoV-2 Spike protein, S1 subunit (recombinant) (SARS-CoV-2, UniProt P0DTC2 16-681); experiment: ELISA, scFv-Fc supernatant on coated SARS-CoV-2 S1; cut-off 3x background
[2] = molecular target: T1, SARS-CoV-2 Spike protein, S1 subunit …; experiment: ELISA, coated SARS-CoV-2 S1; x axis Log Dilution factor, no concentration
[3] = molecular target: SARS-CoV S1 spike protein domain (recombinant) (SARS-CoV, UniProt P59594 14-667); experiment: ELISA on coated SARS-CoV S1

B1: 74655 (Fc fusion)
scFv-Fc: QVQLVQSGAEVKKPGASVKVSCKASGYTFTTYGISWVRQAPGQGLEWMGWISAYNGNTNYAQKLQGRVTMTTDTSTSTAYMELRSLRSDDTAVYYCARDDLSDYGEWLGPDYWGQGTLVTVSSQPGLTQPPSASGTPGQRVTISCSGSRSNIGGNTVNWYQHVPGTAPKLLIYSNNQRPSGVPDRFSGSKSGTSASLAISGLRSEDEAEYYCATWEDSLSGYVFGPGTKVTVL
[1]
  binding result: no binding (tested: approximately 10 µg/ml)

B2: 74652 (Fc fusion)
scFv-Fc: QVQLLESGAELVKPGASVKVSCKASGYTFTSYWIHWVKQRPGQGLEWIGEINPSNGRTNYNGNFESKATLTVDKSSNTAYMHLSSLTYEDSAVYHCTRLDYWGQGTTLTVSSELVMTQSPASLSVITGKKVTIRCISNTDIDDDLNWSQLKAGEPPKLLISEGNIFSPGVPSRFSSSGNGTDFVFTIENTLSEDVANNYCFQSDNMPFTFGSGTKLEIK
[1]
  binding result: no binding (tested: approximately 10 µg/ml)

B3: 74648 (Fc fusion)
scFv-Fc: EVQLVQSGGGVVQPGKSLRLSCAASGFAFSSYAMHWVRQAPGKGLEWVAVISYDGSNKYYADSVKGRFTISRDNSKNTLYLQMNSLRAEDTAVYYCARDRSYYLDYWGQGTLVTVSSETTLTQSPATLSLSPGERATLSCRASQSVRSNLAWYQQKPGQAPRPLIYDASTRATGIPDRFSGSGSGTDFTLTISRLEPEDFAVYYCQQRSNWPPTFGQGTKVEVK
[1]
  binding result: no binding (tested: approximately 10 µg/ml)

B4: dAb clone 9 fused to Fc (Fc fusion)
chain: QVQLQESGGGLVQAGDSLRLSCAASGRTSDTMTIGWFRQAPGKEREFVASINWSGSTTYYADSVNERFTISRDDAKNTVYLQMNSLKPEDTAVYYCAAKRGVWTIKSAAADFASWGQGTQVTVSS
notes: also called clone C9 fused to Fc
[2]
  binding result: binds
[3]
  binding result: no binding

B5: 74653 (Fc fusion)
scFv-Fc: QVQLQQPGAELVKPGASVKVSCKASGYTFTNYWIHWVKQRPGQGLEWIGEINPGNGRTNYNGNFMNKATLTVDKSSNTAYMQLSSLTSEDSAVYHCARLDYWGQGTTLTVSSELVMTQSPASLSVATGKKVTIRCISSTDIDDDMNWYQQKAGKPPKLLISEGNIFSPGVPSRFSSSGNGTDFVFTVENTLSEDVADNYCLQSDNMPFTFGSGTKLGIK
[1]
  binding result: no binding (tested: approximately 10 µg/ml)

B6: 74651 (Fc fusion)
scFv-Fc: EVQLEESGTVLARPGASVKMSCKASGYTFTTYRMHWIKQRPGQGLEWIGAIYPGNSDTTYNQKFKDKAKLTAVTSTSSAYMELSSLTNEDSAVYFCTREGIPQLLRTLDYWGQGTSVTVSSDILMTQSPSSLSASLGERVSLTCRASQEISGYLSWLQEKPDGTIKRLIYAASTLDSGVPKRFSGSRSGSDYSLTISSLESEDFADYYCLQYVSYPWTFGGGTKLEIK
[1]
  binding result: no binding (tested: approximately 10 µg/ml)

B7: 74650 (Fc fusion)
scFv-Fc: QVQLQQSGAEVKKPGSSVKVSCKASGGTFSSYTISWVRQAPGQGLEWMGGITPILGIANYAQKFQGRVTITTDESTSTAYMELSSLRSEDTAVYYCARDTVMGGMDVWGQGTTVTVSSSYELTQPPSVSVAPGKTARITCGGNNIGSKSVHWYQQKPGQAPVLVVYDDSDRPSGIPERFSGSNSGNTATLTISRVEAGDEADYYCQVWDSSSDYVFGTGTKVTVL
[1]
  binding result: no binding (tested: approximately 10 µg/ml)

B8: 74649 (Fc fusion)
scFv-Fc: QAQLVESGGALVQPGRSLRLSCAASGFTFRNYAMHWVRQAPATGLQWLAVITSDGRNKFYADSVKGRFTISREDSKNTLYLQMDSLRGEDTAVYYCVTQRDNSRDYFPHYFHDMDVWGQGTTVAVSSDVVLTQSPLSLPVTLGQPASISCRSSQSLVYSDGDTYLNWFQQRPGQSPRRLIYQVSNRDSGVPDRFSGSGSGTDFTLKISRVEAEDVGVYYCMQGSHWPPTFGQGTKVEIK
[1]
  binding result: no binding (tested: approximately 10 µg/ml)

B9: 74662 (Fc fusion)
scFv-Fc: EVQLVESGGGLVQPGGSLRLSCAASGFTFSGYPMHWVRQAPGKGLEWVAVISYDGSNKYYADSVKGRFTISRDNSKNTLYLQMNSLRAEDTAVYYCAKDGSPRTPSFDYWGQGTLVTVLEDIQMTQSPHSLSASVGDRVTITCRASQGISNYLAWYQQKPGKVPKLLIYAASTLQSGVPSRFSGSGSGTDFTLTISSLQPEDVGVYYCQQRFRTPVTFGQGTKLEIK
[1]
  binding result: no binding (tested: approximately 10 µg/ml)

B10: 74667 (Fc fusion)
scFv-Fc: QVQLVQSGAEVKKPGESLKISCKGSGYSFANHWIAWVRQMPGKGLEWMGIFNPDNSDTTYSPSFQGQVTFSADKSISIAYLHWSSLKASDTAIYYCARLALSDGWLHDFWGQGTLVTVSSEIVMTQSPLSLPVTLGQPASISCKSSQSLVDTNGNTYLIWFHQRPGQSPRRLIYQVSKRDSGVPDRFSGSGSGTDFTLKISRVEAEDVGVYFCMQGTYRPPTLGQGTKVEIK
[1]
  binding result: no binding (tested: approximately 10 µg/ml)

Source: US20230293647A1 (AUTOLUS, published 2023)
